Results taken from US20160362487A1 (Regeneron, published 2016).
Changes are numbered by the printed parent chain. Numbers in names are those of the source.

T1: human IL-33 (R&D Systems, #3625-IL-010/CF) (human, UniProt O95760 112-270)
T1 sequence (looked up): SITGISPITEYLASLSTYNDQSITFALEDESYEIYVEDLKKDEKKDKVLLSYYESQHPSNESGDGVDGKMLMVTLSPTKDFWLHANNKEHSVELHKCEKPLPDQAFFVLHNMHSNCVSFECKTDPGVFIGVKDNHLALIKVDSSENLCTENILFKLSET

T2: cynomolgus monkey IL-33 expressed with a C-terminal hexahistidine tag (cynomolgus monkey)
T2 chain: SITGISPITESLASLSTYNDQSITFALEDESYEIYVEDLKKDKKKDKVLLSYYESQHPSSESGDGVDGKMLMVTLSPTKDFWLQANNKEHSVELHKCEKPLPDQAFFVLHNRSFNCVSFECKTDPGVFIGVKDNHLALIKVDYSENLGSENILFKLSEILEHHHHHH

B1: H4H9660P (antibody, human IgG4, V domains shown)
VH: EVQLVESGGGLVQPGGSLRLSCAASGITLSSYGMSWVRQAPGKGLEWVASIFGSGGGPYYADSVKGRFTMSRDNSKNTLYLQMNSLRAEDTAVYYCAKDRYSGSYYGGFDYWGRGTLVTVSS
VL: DIQMTQSPSSVSASVGDRVTITCRASQGITSWLAWYQQKPGKAPTLLIYAASSLQTGVPSRFSGSGSGTDFTLTISSLQPEHFATYYCQQANSFPPTFGGGTKVEIK
notes: Human IgG4 Fc (H4H)
B2: H4H9662P (antibody, V domains shown)
VH: EVQLVESGGGLVQPGGSLRLSCAASGFTFSSYALTWVRQAPGKGLEWVSFISGSGGRPFYADSVKGRFTISRDNSKNMLYLQMNSLRAEDTAIYYCAKSLYTTSWYGGFDSWGQGTLVTVSS
VL: B1 VL with I29V, T30V, T45K, T56S, H82D, A91S, P96F, F98L, G100P, E105D
notes: Human IgG4 Fc (H4H)
B3: H4H9667P (antibody, human IgG4, V domains shown)
VH: EVQLVESGGGLVQPGGSLRLSCAASGFTFSTYSMHWVRQAPGKGLEYVSTINNNGDTTYYADSVKGRFTISRDNSKNTLYLQLGSLRPEDMAVYYCARQTYTSSWYGGFDSWGQGTLVTVSS
VL: B1 VL with T45K, S53N, T56S, S76T, H82D, F94L, P96F, G100P, E105D
notes: Human IgG4 Fc (H4H)
B4: H4H9665P (antibody, human IgG4, V domains shown)
VH: EVQLVESGGGLVQPGGSLRLSCAASGFTFSNYAMTWVRQAPGKGLEWVSTISGSGDNTYYADSVQGRFTISRGHSKNTLYLQMNSLRAEDTAVYYCAKPTYSRSWYGAFDFWGQGTMVTVSS
VL: B1 VL with T30S, T45Q, S53R, T56S, S63W, H82D, S93N, P96F, G100P, E105D
notes: Human IgG4 Fc (H4H)
B5: H4H9663P (antibody, human IgG4, V domains shown)
VH: QVQLVQSGAEVKKPGASVKVSCKASGYTFTGHYMYWMRQAPGQGLEWMGWINPNSGGTNYAQKFQDRVTMTRDTSISTAYMELSRLRSDDTAVYYCARGRYGSSWYGGFEYWGQGTLVTVSS
VL: B1 VL with T45N, S52A, T56S, H82D, A84T, N92Y, F94L, P96L
notes: Human IgG4 Fc (H4H)
B6: H4H9666P (antibody, human IgG4, V domains shown)
VH: QVQLVQSGAEVKKPGASVKVSCKASGYTFTSYGISWVRQAPGQGLEWMGWIRAYNGYTNYAQKFQGRVTMTTDTSTNTAYMELRTLNSDDTAVYYCARDRYSGSFHGNFDYWGQGTLVTVSS
VL: B1 VL with T30F, T45K, L46V, S53N, Q55E, T56S, H82D, F94L, P96L
notes: Human IgG4 Fc (H4H)
B7: H4H9664P (antibody, human IgG4, V domains shown)
VH: QVQLVESGGGVVQPGRSLRLSCAASGFTFSSYGLHWVRQSPGKGLEWVALISYDGSNKYYADSVKGRFTISRDNSKNTLYLQMNSLRPEDTAGYFCAKSLYTTSWYGGFDYWGQGTLVTVSS
VL: B1 VL with T30R, T45N, T56S, H82D, G100P, E105D
notes: Human IgG4 Fc (H4H)

Tests used:
[1] = biological target: T1, human IL-33 (R&D Systems, …); experiment: cell-based or functional assay
[2] = biological target: T2, cynomolgus monkey IL-33 expressed with …; experiment: cell-based or functional assay
[3] = biological target: T1, human IL-33 (R&D Systems, …); experiment: SPR 25C, pH6.0 chase, mAb captured
Procedure: (§1) Equilibrium dissociation constants (KD values) for IL-33 binding to purified anti-IL-33 monoclonal antibodies were determined using a real-time surface plasmon resonance biosensor using a Biacore 4000 instrument. The Biacore sensor surface was first derivatized by amine coupling with either a polyclonal rabbit anti-mouse antibody (GE, # BR-1008-38) or with a monoclonal mouse anti-human Fc antibody (GE, # BR-1008-39) to capture anti-IL-33 monoclonal antibodies expressed with mouse or with human IgG4 constant regions, respectively. All Biacore binding studies were performed in 0.01M ADA pH 7.4, 0.15M NaCl, 3 mM EDTA, and 0.05% v/v Surfactant Tween-20 (ABS-ET running buffer). […] Association of either hIL-33 or MfIL-33-6His to the captured monoclonal antibody was monitored for 4 minutes and their dissociation in ABS-ET running buffer was monitored for 10 minutes. The effect of reduced pH on the binding of each anti-IL-33 antibody to either hIL-33 or MfIL-33-6His was studied using an in-line pH chase assay format in 0.01M ADA pH 6.0, 0.15M NaCl, 3 mM EDTA, and 0.05% v/v Surfactant Tween-20 (ABS-ET pH6 buffer). To achieve this, association of either hIL-33 or MfIL-33-6His to the captured monoclonal antibody was monitored for 4 minutes in ABS-ET running buffer. Following a 30 second dissociation of either hIL-33 or MfIL-33-6His in ABS-ET running buffer, ABS-ET pH6 buffer was injected for 3 minutes, and the analyte dissociation under the low-pH conditions was measured. All the binding kinetic experiments were performed at both 25° C. and 37° C. Kinetic association (kₐ) and dissociation (kd) constants were determined by fitting the real-time sensorgrams to a 1:1 binding model using Scrubber 2.0c curve fitting software. Binding dissociation equilibrium constants (KD) and dissociative half-lives (t½) were calculated from the kinetic rate constants as: […]

[4] = biological target: T2, cynomolgus monkey IL-33 expressed with …; experiment: SPR 25C, pH6.0 chase, mAb captured
Procedure: as §1

[5] = biological target: T1, human IL-33 (R&D Systems, …); experiment: BLI; hIL-33 pre-mixed with mAb-2 Isotype control 1
Procedure: (§2) Binding competition between a panel of different anti-IL-33 monoclonal antibodies was determined using a real time, label-free bio-layer interferometry assay on an Octet® HTX biosensor (ForteBio, A Division of Pall Life Sciences). The experiment was performed at 25° C. using a buffer of 0.01M HEPES pH7.4, 0.15M NaCl, 0.05% v/v Surfactant Tween-20, and 0.1 mg/ml BSA (HBS-ET kinetics buffer) with the plate shaking at a speed of 1000 rpm. To assess whether two antibodies were able to compete with one another for binding to human IL-33, a pre-mix assay format was used where 100 nM of human IL-33 (R&D Systems; #3625-IL-010/CF) was pre-mixed with 500 nM of different anti-IL-33 monoclonal antibodies (subsequently referred to as mAb-2) for at least 2 hours prior to running the binding competition assay. […] Following the capture step, unoccupied anti-mouse Fc polyclonal antibody and anti-human Fc polyclonal antibody on the Octet biosensors were saturated by submerging them for 4 minutes into wells containing 200 μg/mL of a non-specific monoclonal antibody with a mouse Fc or with a human Fc, respectively. Finally, the Octet biosensors were immersed for 4 minutes into wells containing the pre-mixed samples of 100 nM of human IL-33 and 500 nM of mAb-2. At the end of each cycle, the non-covalently captured anti-IL-33 antibodies along with the bound pre-complex of human IL-33 and mAb-2 were removed from the biosensors using three alternate 20 second immersions into 10 mM HCl followed by submerging into HBS-ET kinetics buffer. The biosensors were washed in HBS-ET kinetics buffer in between every step of the experiment. The real-time binding response was monitored during the binding events, and the binding response (in units of nm) at the end of every step was recorded.

[6] = biological target: T1, human IL-33 (R&D Systems, …); experiment: BLI; hIL-33 pre-mixed with mAb-2 Isotype control 2
Procedure: as §2

IC50, inhibition of 10 pM hIL-33 activation of HEK293/hST2/NFkB-luciferase cells [1] | IC50, inhibition of 5 pM MfIL-33-6His activation of HEK293/hST2/NFkB-luciferase cells [2] | koff [3] | t½ [3] | t½ Ratio (pH 7.4/pH 6.0) [3] | koff [4] | t½ [4] | t½ Ratio (pH 7.4/pH 6.0) [4] | mAb-1 Binding to the Pre-complex of mAb-2 & hIL-33 [5] | mAb-1 Binding to the Pre-complex of mAb-2 & hIL-33 [6] | Binder
3.5e-11 M | 1.9e-08 M | 0.000708 s⁻¹ | 16 min | 3.2 | 0.00108 s⁻¹ | 11 min | 0.7 | 0.21 nm | 0.15 nm | B1
2e-11 M | 1.5e-09 M | 0.000826 s⁻¹ | 14 min | 3.3 | 0.000117 s⁻¹ | 99 min | 0.3 | 0.19 nm | 0.11 nm | B2
7.1e-11 M | 1.2e-08 M | 0.000566 s⁻¹ | 20 min | 2.2 | 0.000696 s⁻¹ | 17 min | 0.7 | 0.23 nm | 0.12 nm | B3
9e-11 M | 6.6e-10 M | 0.00212 s⁻¹ | 5 min | 4.5 | 0.000753 s⁻¹ | 15 min | 1.3 | 0.14 nm | 0.09 nm | B4
1.3e-10 M | 2.7e-09 M | 0.0011 s⁻¹ | 11 min | 2.7 | 0.000683 s⁻¹ | 17 min | 0.7 | 0.17 nm | 0.09 nm | B5
3.5e-11 M | 7.8e-08 M | 0.00134 s⁻¹ | 9 min | 4.8 | 0.00809 s⁻¹ | 1.4 min | 2.3 | 0.15 nm | 0.08 nm | B6
5e-11 M | 2.6e-08 M | 0.000823 s⁻¹ | 14 min | 3.2 | 0.00048 s⁻¹ | 24 min | 0.3 | 0.16 nm | 0.1 nm | B7
